# Results: IntAct's records for PubMed 26853155
# B1: Syncytin-2 (Homo sapiens), P60508 (parent)
# chain: MGLLLLVLILTPSLAAYRHPDFPLLEKAQQLLQSTGSPYSTNCWLCTSSSTETPGTAYPASPREWTSIEAELHISYRWDPNLKGLMRPANSLLSTVKQDFPDIRQKPPIFGPIFTNINLMGIAPICVMAKRKNGTNVGTLPSTVCNVTFTVDSNQQTYQTYTHNQFRHQPRFPKPPNITFPQGTLLDKSSRFCQGRPSSCSTRNFWFRPADYNQCLQISNLSSTAEWVLLDQTRNSLFWENKTKGANQSQTPCVQVLAGMTIATSYLGISAVSEFFGTSLTPLFHFHISTCLKTQGAFYICGQSIHQCLPSNWTGTCTIGYVTPDIFIAPGNLSLPIPIYGNSPLPRVRRAIHFIPLLAGLGILAGTGTGIAGITKASLTYSQLSKEIANNIDTMAKALTTMQEQIDSLAAVVLQNRRGLDMLTAAQGGICLALDEKCCFWVNQSGKVQDNIRQLLNQASSLRERATQGWLNWEGTWKWFSWVLPLTGPLVSLLLLLLFGPCLLNLITQFVSSRLQAIKLQTNLSAGRHPRNIQESPF
# partner: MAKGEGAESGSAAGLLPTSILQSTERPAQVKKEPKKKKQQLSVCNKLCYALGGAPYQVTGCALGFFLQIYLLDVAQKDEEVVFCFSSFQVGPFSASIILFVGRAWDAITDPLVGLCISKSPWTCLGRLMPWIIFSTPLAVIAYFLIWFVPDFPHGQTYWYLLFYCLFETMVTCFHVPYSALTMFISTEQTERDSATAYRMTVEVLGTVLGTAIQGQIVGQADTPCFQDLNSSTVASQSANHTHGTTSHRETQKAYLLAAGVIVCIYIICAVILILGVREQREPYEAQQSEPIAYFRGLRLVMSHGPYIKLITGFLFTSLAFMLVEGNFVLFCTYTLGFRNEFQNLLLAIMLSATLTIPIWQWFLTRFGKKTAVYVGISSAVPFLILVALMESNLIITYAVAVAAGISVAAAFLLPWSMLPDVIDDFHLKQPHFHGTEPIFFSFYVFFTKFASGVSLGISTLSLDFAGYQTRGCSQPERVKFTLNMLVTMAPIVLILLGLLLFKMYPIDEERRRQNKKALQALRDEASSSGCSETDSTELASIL
# Variants of: B1
# Details: with nls1_human MFSD2A
row,Variant,effect of a mutation on the interaction
1,MGLLLLVLILTPSLAAYRHPDFPLLEKAQQLLQSTGSPYSTNCWLCTSSSTETPGTAYPASPREWTSIEAELHISYRWDPNLKGLMRPANSLLSTVKQDFPDIRQKPPIFGPIFTNINLMGIAPICVMAKRKNGTNVGTLPSTVCNVTFTVDSNQQTYQTYTHNQFRHQPRFPKPPNITFPQGTLLDKSSRFCQGRPSSCSTRNFWFRPADYNQCLQISNLSSTAEWVLLDQTRNSLFWENKTKGANQSQTPCVQVLAGMTIATSYLGISAVSEFFGTSLTPLFHFHISTCLKTQGAFYICGQSIHQCLPSNWTGTCTIGYVTPDIFIAPGQLSLPIPIYGNSPLPRVRRAIHFIPLLAGLGILAGTGTGIAGITKASLTYSQLSKEIANNIDTMAKALTTMQEQIDSLAAVVLQNRRGLDMLTAAQGGICLALDEKCCFWVNQSGKVQDNIRQLLNQASSLRERATQGWLNWEGTWKWFSWVLPLTGPLVSLLLLLLFGPCLLNLITQFVSSRLQAIKLQTNLSAGRHPRNIQESPF [N332Q],decreasing interaction strength
2,MGLLLLVLILTPSLAAYRHPDFPLLEKAQQLLQSTGSPYSTNCWLCTSSSTETPGTAYPASPREWTSIEAELHISYRWDPNLKGLMRPANSLLSTVKQDFPDIRQKPPIFGPIFTNINLMGIAPICVMAKRKNGTNVGTLPSTVCNVTFTVDSNQQTYQTYTHNQFRHQPRFPKPPNITFPQGTLLDKSSRFCQGRPSSCSTRNFWFRPADYNQCLQISNLSSTAEWVLLDQTRNSLFWENKTKGANQSQTPCVQVLAGMTIATSYLGISAVSEFFGTSLTPLFHFHISTCLKTQGAFYICGQSIHQCLPSNWTGTCTIGYVTPDIFIAPGNLSLPIPIYGNSPLPRVRRAIHFIPLLAGLGILAGTGTGIAGITKASLTYSQLSKEIANNIDTMAKALTTMQEQIDSLAAVVLQNRRGLDMLTAAQGGICLALDEKCCFWVNQSGKVQDNIRQLLNQASSLRERATQGWLNWEGTWKWFSWILPLTGPLVSLLLLLLFGPCLLNLITQFVSSRLQAIKLQTNLSAGRHPRNIQESPF [V483I],decreasing interaction strength
3,MGLLLLVLILTPSLAAYRHPDFPLLEKAQQLLQSTGSPYSTNCWLRTSSSTETPGTAYPASPREWTSIEAELHISYRWDPNLKGLMRPANSLLSTVKQDFPDIRQKPPIFGPIFTNINLMGIAPICVMAKRKNGTNVGTLPSTVCNVTFTVDSNQQTYQTYTHNQFRHQPRFPKPPNITFPQGTLLDKSSRFCQGRPSSCSTRNFWFRPADYNQCLQISNLSSTAEWVLLDQTRNSLFWENKTKGANQSQTPCVQVLAGMTIATSYLGISAVSEFFGTSLTPLFHFHISTCLKTQGAFYICGQSIHQCLPSNWTGTCTIGYVTPDIFIAPGNLSLPIPIYGNSPLPRVRRAIHFIPLLAGLGILAGTGTGIAGITKASLTYSQLSKEIANNIDTMAKALTTMQEQIDSLAAVVLQNRRGLDMLTAAQGGICLALDEKCCFWVNQSGKVQDNIRQLLNQASSLRERATQGWLNWEGTWKWFSWVLPLTGPLVSLLLLLLFGPCLLNLITQFVSSRLQAIKLQTNLSAGRHPRNIQESPF [C46R],decreasing interaction strength
4,MGLLLLVLILTPSLAAYRHPDFPLLEKAQQLLQSTGSPYSTNCWLCTSSSTETPGTAYPASPREWTSIEAELHISYRWDPNLKGLMRPANSLLSTVKQDFPDIRQKPPIFGPIFTNINLMGIAPICVMAKRKNGTNVGTLPSTVCNVTFTVDSNQQTYQTYTHNQFRHQPRFPKPPNITFPQGTLLDKSSRFCQGRPSSCSTRNFWFRPADYNQCLQISNLSSTAEWVLLDQTRNSLFWENKTKGANQSQTPCVQVLAGMTIATSYLGISAVSEFFGTSLTPLFHFHISTCLKTQGAFYICGQSIHQCLPSNWTGTCTIGYVTPDIFIAPGNLSLPIPIYGNSPLPRVRRAIHFIPLLAGLGILAGTGTGIAGITKASLTYSQLSKEIANNIDTMAKALTTMQEQIDSLAAVVLQNHRGLDMLTAAQGGICLALDEKCCFWVNQSGKVQDNIRQLLNQASSLRERATQGWLNWEGTWKWFSWVLPLTGPLVSLLLLLLFGPCLLNLITQFVSSRLQAIKLQTNLSAGRHPRNIQESPF [R417H],decreasing interaction strength
5,MGLLLLVLILTPSLAAYRHPDFPLLEKAQQLLQSTGSPYSTNCWLCTSSSTETPGTAYPASPREWTSIEAELHISYRWDPNLKGLMRPANSLLSTVKQDFPDIRQKPPIFGPIFTNINLMGIAPICVMAKRKNGTNVGTLPSTVCNVTFTVDSNQQTYQTYTHNQFRHQPRFPKPPNITFPQGTLLDKSSRFCQGRPSSCSTRNFWFRPADYNQCLQISNLSSTAEWVLLDQTRNSLFWENKTKGANQSQTPCVQVLAGMTIATSYLGISAVSEFFGTSLTPLFHFHISTCLKTQGAFYICGQSIHQCLPSQWTGTCTIGYVTPDIFIAPGNLSLPIPIYGNSPLPRVRRAIHFIPLLAGLGILAGTGTGIAGITKASLTYSQLSKEIANNIDTMAKALTTMQEQIDSLAAVVLQNRRGLDMLTAAQGGICLALDEKCCFWVNQSGKVQDNIRQLLNQASSLRERATQGWLNWEGTWKWFSWVLPLTGPLVSLLLLLLFGPCLLNLITQFVSSRLQAIKLQTNLSAGRHPRNIQESPF [N312Q],decreasing interaction strength
6,MGLLLLVLILTPSLAAYRHPDFPLLEKAQQLLQSTGSPYSTNCWLCTSSSTETPGTAYPASPREWTSIEAELHISYRWDPNLKGLMRPANSLLSTVKQDFPDIRQKPPIFGPIFTNINLMGIAPICVMAKRKNGTNVGTLPSTVCNVTFTVDSNQQTYQTYTHNQFRHQPRFPKPPNITFPQGTLLDKSSRFCQGRPSSCSTRNFWFRPADYNQCLQISNLSSTAEWVLLDQTRNSLFWENKTKGANQSQTPCVQVLAGMTIATSYLGISAVSEFFGTSLTPLFHFHISTCLKTQGAFYICGQSIHQCLPSNWTGTCTIGYVTPDIFIAPGNLSLPIPIYGNSPLPRVRRAIHFIPLLAGLGILAGTGTGIAGITKASLTYSQLSKEIANNIDTMAKALTTMQEQIDSLAAVVLQNRRGLDMLTAAQGGICLALDEKCCFWVNQSGKVQDNIRQLLNQASSLRERATQGWLNWEGTWKWFSWVLPLTGPLVSLLLLLLFGPCLLNLITQFVSSRLQAIKLQMNLSAGRHPRNIQESPF [T522M],decreasing interaction strength
7,MGLLLLVLILTPSLAAYRHPDFPLLEKAQQLLQSTGSPYSTNCWLCTSSSTETPGTAYPASPREWTSIEAELHISYRWDPNLKGLMRPANSLLSTVKQDFPDIRQKPPIFGPIFTNINLMGIAPICVMAKRKQGTNVGTLPSTVCNVTFTVDSNQQTYQTYTHNQFRHQPRFPKPPNITFPQGTLLDKSSRFCQGRPSSCSTRNFWFRPADYNQCLQISNLSSTAEWVLLDQTRNSLFWENKTKGANQSQTPCVQVLAGMTIATSYLGISAVSEFFGTSLTPLFHFHISTCLKTQGAFYICGQSIHQCLPSNWTGTCTIGYVTPDIFIAPGNLSLPIPIYGNSPLPRVRRAIHFIPLLAGLGILAGTGTGIAGITKASLTYSQLSKEIANNIDTMAKALTTMQEQIDSLAAVVLQNRRGLDMLTAAQGGICLALDEKCCFWVNQSGKVQDNIRQLLNQASSLRERATQGWLNWEGTWKWFSWVLPLTGPLVSLLLLLLFGPCLLNLITQFVSSRLQAIKLQTNLSAGRHPRNIQESPF [N133Q],decreasing interaction strength
8,MGLLLLVLILTPSLAAYRHPDFPLLEKAQQLLQSTGSPYSTNCWLCTSSSTETPGTAYPASPREWTSIEAELHISYRWDPNLKGLMRPANSLLSTVKQDFPDIRQKPPIFGPIFTNINLMGIAPICVMAKRKNGTNVGTLPSTVCNVTFTVDSNQQTYQTYTHNQFRHQPRFPKPPNITFPQGTLLDKSSRFCQGRPSSCSTRNFWFRPADYNQCLQISNLSSTAEWVLLDQTRNSLFWENKTKGANQSQTPCVQVLAGMTIATSYLGISAVSEFFGTSLTPLFHFHISTCLKTQGAFYICGQSIHQCLPSNWTGTCTIGYVTPDIFIAPGNLSLPIPIYGNSPLPRVRRAIHFIPLLAGLGILAGMGTGIAGITKASLTYSQLSKEIANNIDTMAKALTTMQEQIDSLAAVVLQNRRGLDMLTAAQGGICLALDEKCCFWVNQSGKVQDNIRQLLNQASSLRERATQGWLNWEGTWKWFSWVLPLTGPLVSLLLLLLFGPCLLNLITQFVSSRLQAIKLQTNLSAGRHPRNIQESPF [T367M],disrupting interaction strength
9,MGLLLLVLILTPSLAAYRHPDFPLLEKAQQLLQSTGSPYSTNCWLCTSSSTETPGTAYPASPREWTSIEAELHISYRWDPNLKGLMRPANSLLSTVKQDFPDIRQKPPIFGPIFTNINLMGIAPICVMAKRKNGTNVGTLPSTVCNVTFTVDSNQQTYQTYTHNQFRHQPRFPKPPNITFPQGTLLDKSSRFCQGRPSSCSTRNFWFRPADYNQCLQISNLSSTAEWVLLDQTRNSLFWENKTKGANQSQTPCVQVLAGMTIATSYLGISAVSEFFGTSLTPLFHFHISTCLKTQGAFYICGQSIHQCLPSNWTGTCTIGYVTPDIFIAPGNLSLPIPIYGNSPLPRVRRAIHFIPLLAGLGILAGTGTGIAGITKASLTYSQLSKEIANNIDTMAKALTTMQEQIDSLAAVVLQNRRGLDMLTAAQGGICLALDEKCCFWVQQSGKVQDNIRQLLNQASSLRERATQGWLNWEGTWKWFSWVLPLTGPLVSLLLLLLFGPCLLNLITQFVSSRLQAIKLQTNLSAGRHPRNIQESPF [N443Q],disrupting interaction strength
10,MGLLLLVLILTPSLAAYRHPDFPLLEKAQQLLQSTGSPYSTNCWLCTSSSTETPGTAYPASPREWTSIEAELHISYRWDPNLKGLMRPANSLLSTVKQDFPDIRQKPPIFGPIFTNISLMGIAPICVMAKRKNGTNVGTLPSTVCNVTFTVDSNQQTYQTYTHNQFRHQPRFPKPPNITFPQGTLLDKSSRFCQGRPSSCSTRNFWFRPADYNQCLQISNLSSTAEWVLLDQTRNSLFWENKTKGANQSQTPCVQVLAGMTIATSYLGISAVSEFFGTSLTPLFHFHISTCLKTQGAFYICGQSIHQCLPSNWTGTCTIGYVTPDIFIAPGNLSLPIPIYGNSPLPRVRRAIHFIPLLAGLGILAGTGTGIAGITKASLTYSQLSKEIANNIDTMAKALTTMQEQIDSLAAVVLQNRRGLDMLTAAQGGICLALDEKCCFWVNQSGKVQDNIRQLLNQASSLRERATQGWLNWEGTWKWFSWVLPLTGPLVSLLLLLLFGPCLLNLITQFVSSRLQAIKLQTNLSAGRHPRNIQESPF [N118S],increasing interaction strength
